# Numbered stars: 1 amine (or outer) side, 2 acyl side, 3 side chain; on linkers, the order of the positions; unused ones are H or OH. Side chains are listed from the residue outwards. Ends that are not written are not given here. * marks the point of attachment. C18 diacid = O=C(O)CCCCCCCCCCCCCCCCC(=O)*; γGlu = O=C(O)[C@H](CCC(=O)[*:2])N[*:1]; AEEA = NCCOCCOCC(=O)O
# B1: N^ε16-([2-[2-[2-[[2-[2-[2-[[(4S)-5-hydroxy-4-[(18-hydroxy-18-oxooctadecanoyl)amino]-5-oxopentanoyl]amino]ethoxy]ethoxy]acetyl]amino]ethoxy]ethoxy]acetyl])[Lys^1 … (peptide)
# peptide: HSQGTFTSDYSKYLDK([AEEA-AEEA-γGlu-C18 diacid])KRAQEFVQWLLNT-NH2
# modifications: N-terminus assumed
# SMILES: CC(C)C[C@H](NC(=O)[C@H](Cc1ccc(O)cc1)NC(=O)[C@H](CCCCN)NC(=O)[C@H](CO)NC(=O)[C@H](Cc1ccc(O)cc1)NC(=O)[C@H](CC(=O)O)NC(=O)[C@H](CO)NC(=O)[C@@H](NC(=O)[C@H](Cc1ccccc1)NC(=O)[C@@H](NC(=O)CNC(=O)[C@H](CCC(N)=O)NC(=O)[C@H](CO)NC(=O)[C@@H](N)Cc1c[nH]cn1)[C@@H](C)O)[C@@H](C)O)C(=O)N[C@@H](CC(=O)O)C(=O)N[C@@H](CCCCNC(=O)COCCOCCNC(=O)COCCOCCNC(=O)CC[C@H](NC(=O)CCCCCCCCCCCCCCCCC(=O)O)C(=O)O)C(=O)N[C@@H](CCCCN)C(=O)N[C@@H](CCCNC(=N)N)C(=O)N[C@@H](C)C(=O)N[C@@H](CCC(N)=O)C(=O)N[C@@H](CCC(=O)O)C(=O)N[C@@H](Cc1ccccc1)C(=O)N[C@H](C(=O)N[C@@H](CCC(N)=O)C(=O)N[C@@H](Cc1c[nH]c2ccccc12)C(=O)N[C@@H](CC(C)C)C(=O)N[C@@H](CC(C)C)C(=O)N[C@@H](CC(N)=O)C(=O)N[C@H](C(N)=O)[C@@H](C)O)C(C)C
# B2: N^ε24-([2-[2-[2-[[2-[2-[2-[[(4S)-5-hydroxy-4-[(18-hydroxy-18-oxooctadecanoyl)amino]-5-oxopentanoyl]amino]ethoxy]ethoxy]acetyl]amino]ethoxy]ethoxy]acetyl])[Glu^1 … (peptide)
# peptide: HSQGTFTSDYSKYLDERRAQDFVK([AEEA-AEEA-γGlu-C18 diacid])WLLAT-NH2
# modifications: N-terminus assumed
# SMILES: CC(C)C[C@H](NC(=O)[C@H](CC(C)C)NC(=O)[C@H](Cc1c[nH]c2ccccc12)NC(=O)[C@H](CCCCNC(=O)COCCOCCNC(=O)COCCOCCNC(=O)CC[C@H](NC(=O)CCCCCCCCCCCCCCCCC(=O)O)C(=O)O)NC(=O)[C@@H](NC(=O)[C@H](Cc1ccccc1)NC(=O)[C@H](CC(=O)O)NC(=O)[C@H](CCC(N)=O)NC(=O)[C@H](C)NC(=O)[C@H](CCCNC(=N)N)NC(=O)[C@H](CCCNC(=N)N)NC(=O)[C@H](CCC(=O)O)NC(=O)[C@H](CC(=O)O)NC(=O)[C@H](CC(C)C)NC(=O)[C@H](Cc1ccc(O)cc1)NC(=O)[C@H](CCCCN)NC(=O)[C@H](CO)NC(=O)[C@H](Cc1ccc(O)cc1)NC(=O)[C@H](CC(=O)O)NC(=O)[C@H](CO)NC(=O)[C@@H](NC(=O)[C@H](Cc1ccccc1)NC(=O)[C@@H](NC(=O)CNC(=O)[C@H](CCC(N)=O)NC(=O)[C@H](CO)NC(=O)[C@@H](N)Cc1c[nH]cn1)[C@@H](C)O)[C@@H](C)O)C(C)C)C(=O)N[C@@H](C)C(=O)N[C@H](C(N)=O)[C@@H](C)O
# B3: N^[24-([2-[2-[2-[[2-[2-[2-[[(4S)-5-hydroxy-4-[(18-hydroxy-18-oxooctadecanoyl)amino]-5-oxopentanoyl]amino]ethoxy]ethoxy]acetyl]amino]ethoxy]ethoxy]acetyl])[Lys^1 … (peptide)
# peptide: HSQGTFTSDYSKYLDSKRAQEFVK([AEEA-AEEA-γGlu-C18 diacid])WLLNT-NH2
# modifications: N-terminus assumed
# SMILES: CC(C)C[C@H](NC(=O)[C@H](Cc1ccc(O)cc1)NC(=O)[C@H](CCCCN)NC(=O)[C@H](CO)NC(=O)[C@H](Cc1ccc(O)cc1)NC(=O)[C@H](CC(=O)O)NC(=O)[C@H](CO)NC(=O)[C@@H](NC(=O)[C@H](Cc1ccccc1)NC(=O)[C@@H](NC(=O)CNC(=O)[C@H](CCC(N)=O)NC(=O)[C@H](CO)NC(=O)[C@@H](N)Cc1c[nH]cn1)[C@@H](C)O)[C@@H](C)O)C(=O)N[C@@H](CC(=O)O)C(=O)N[C@@H](CO)C(=O)N[C@@H](CCCCN)C(=O)N[C@@H](CCCNC(=N)N)C(=O)N[C@@H](C)C(=O)N[C@@H](CCC(N)=O)C(=O)N[C@@H](CCC(=O)O)C(=O)N[C@@H](Cc1ccccc1)C(=O)N[C@H](C(=O)N[C@@H](CCCCNC(=O)COCCOCCNC(=O)COCCOCCNC(=O)CC[C@H](NC(=O)CCCCCCCCCCCCCCCCC(=O)O)C(=O)O)C(=O)N[C@@H](Cc1c[nH]c2ccccc12)C(=O)N[C@@H](CC(C)C)C(=O)N[C@@H](CC(C)C)C(=O)N[C@@H](CC(N)=O)C(=O)N[C@H](C(N)=O)[C@@H](C)O)C(C)C
# B4: N^ε24-([2-[2-[2-[[2-[2-[2-[[(4S)-5-hydroxy-4-[(18-hydroxy-18-oxooctadecanoyl)amino]-5-oxopentanoyl]amino]ethoxy]ethoxy]acetyl]amino]ethoxy]ethoxy]acetyl])[Glu^1 … (peptide)
# peptide: HSQGTFTSDYSKYLDEKAAQEFVK([AEEA-AEEA-γGlu-C18 diacid])WLLNT-NH2
# modifications: N-terminus assumed
# SMILES: CC(C)C[C@H](NC(=O)[C@H](Cc1ccc(O)cc1)NC(=O)[C@H](CCCCN)NC(=O)[C@H](CO)NC(=O)[C@H](Cc1ccc(O)cc1)NC(=O)[C@H](CC(=O)O)NC(=O)[C@H](CO)NC(=O)[C@@H](NC(=O)[C@H](Cc1ccccc1)NC(=O)[C@@H](NC(=O)CNC(=O)[C@H](CCC(N)=O)NC(=O)[C@H](CO)NC(=O)[C@@H](N)Cc1c[nH]cn1)[C@@H](C)O)[C@@H](C)O)C(=O)N[C@@H](CC(=O)O)C(=O)N[C@@H](CCC(=O)O)C(=O)N[C@@H](CCCCN)C(=O)N[C@@H](C)C(=O)N[C@@H](C)C(=O)N[C@@H](CCC(N)=O)C(=O)N[C@@H](CCC(=O)O)C(=O)N[C@@H](Cc1ccccc1)C(=O)N[C@H](C(=O)N[C@@H](CCCCNC(=O)COCCOCCNC(=O)COCCOCCNC(=O)CC[C@H](NC(=O)CCCCCCCCCCCCCCCCC(=O)O)C(=O)O)C(=O)N[C@@H](Cc1c[nH]c2ccccc12)C(=O)N[C@@H](CC(C)C)C(=O)N[C@@H](CC(C)C)C(=O)N[C@@H](CC(N)=O)C(=O)N[C@H](C(N)=O)[C@@H](C)O)C(C)C
# B5: (N^ε24-([2-[2-[2-[[2-[2-[2-[[(4S)-5-hydroxy-4-[(18-hydroxy-18-oxooctadecanoyl)amino]-5-oxopentanoyl]amino]ethoxy]ethoxy]acetyl]amino]ethoxy]ethoxy]acetyl])[Gln^ … (peptide)
# peptide: HSQGTFTSDYSKYLDSQRAQDFVK([AEEA-AEEA-γGlu-C18 diacid])WLVKTGP-NH2
# modifications: N-terminus assumed
# SMILES: CC(C)C[C@H](NC(=O)[C@H](Cc1ccc(O)cc1)NC(=O)[C@H](CCCCN)NC(=O)[C@H](CO)NC(=O)[C@H](Cc1ccc(O)cc1)NC(=O)[C@H](CC(=O)O)NC(=O)[C@H](CO)NC(=O)[C@@H](NC(=O)[C@H](Cc1ccccc1)NC(=O)[C@@H](NC(=O)CNC(=O)[C@H](CCC(N)=O)NC(=O)[C@H](CO)NC(=O)[C@@H](N)Cc1c[nH]cn1)[C@@H](C)O)[C@@H](C)O)C(=O)N[C@@H](CC(=O)O)C(=O)N[C@@H](CO)C(=O)N[C@@H](CCC(N)=O)C(=O)N[C@@H](CCCNC(=N)N)C(=O)N[C@@H](C)C(=O)N[C@@H](CCC(N)=O)C(=O)N[C@@H](CC(=O)O)C(=O)N[C@@H](Cc1ccccc1)C(=O)N[C@H](C(=O)N[C@@H](CCCCNC(=O)COCCOCCNC(=O)COCCOCCNC(=O)CC[C@H](NC(=O)CCCCCCCCCCCCCCCCC(=O)O)C(=O)O)C(=O)N[C@@H](Cc1c[nH]c2ccccc12)C(=O)N[C@@H](CC(C)C)C(=O)N[C@H](C(=O)N[C@@H](CCCCN)C(=O)N[C@H](C(=O)NCC(=O)N1CCC[C@H]1C(N)=O)[C@@H](C)O)C(C)C)C(C)C
# Target: glucagon receptor (UniProt P47871 26-477, limits assumed)
# Sequence (P47871 26-477 limits assumed): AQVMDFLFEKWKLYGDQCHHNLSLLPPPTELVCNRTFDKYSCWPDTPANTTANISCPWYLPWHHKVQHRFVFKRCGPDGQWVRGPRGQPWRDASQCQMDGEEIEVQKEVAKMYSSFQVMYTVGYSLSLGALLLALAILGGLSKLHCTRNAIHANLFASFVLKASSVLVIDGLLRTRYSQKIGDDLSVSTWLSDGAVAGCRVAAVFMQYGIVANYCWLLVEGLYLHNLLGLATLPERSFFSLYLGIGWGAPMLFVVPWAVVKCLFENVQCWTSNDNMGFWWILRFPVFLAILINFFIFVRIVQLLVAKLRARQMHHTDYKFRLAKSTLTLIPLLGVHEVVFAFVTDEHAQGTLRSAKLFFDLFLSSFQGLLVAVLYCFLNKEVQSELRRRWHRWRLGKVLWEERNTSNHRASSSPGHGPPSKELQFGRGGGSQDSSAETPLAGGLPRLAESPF
# Experiment: cell-based or functional assay
row,Assay (I) Glucagon [EC50] [nM],Binder
1,0.018,B1
2,0.0235,B2
3,0.016,B3
4,0.048,B4
5,0.942,B5

# — patent publication US20130143798A1 (Novo Nordisk, published 2013)
